According to patent US20150104457A1 (OREGA BIOTECH, published 2015):
“And” between values parts separate entries of the source, which are not always exact repeats. Equal entries are not always repeated.

T1: recombinant human IL-17A (human, UniProt Q16552 24-155)
T1 sequence: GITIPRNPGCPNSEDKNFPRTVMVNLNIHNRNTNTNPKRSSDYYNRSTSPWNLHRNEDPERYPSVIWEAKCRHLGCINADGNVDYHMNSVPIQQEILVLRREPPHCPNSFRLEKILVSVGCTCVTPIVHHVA

T2: recombinant human IL-17A/F (heterodimer) (human, UniProt Q16552 24-155; Q96PD4 31-163)
T2 sequence 1: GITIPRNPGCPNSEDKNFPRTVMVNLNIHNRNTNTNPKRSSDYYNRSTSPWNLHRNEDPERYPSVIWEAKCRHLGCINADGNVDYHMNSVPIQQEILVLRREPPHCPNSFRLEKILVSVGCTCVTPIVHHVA
T2 sequence 2: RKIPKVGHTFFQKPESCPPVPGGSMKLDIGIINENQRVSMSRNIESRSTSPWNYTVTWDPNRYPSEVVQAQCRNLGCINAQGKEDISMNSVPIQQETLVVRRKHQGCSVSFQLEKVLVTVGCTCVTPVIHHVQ

B1: OREG-203 (antibody, V domains shown)
VH: QAQLQQSGAELVKPGASVKMSCKAFGYTFTTFPIEWMKQNHGKSLEWIGNFHPYNDYTKYNEKFKGKAKLTVEKSSRTVYLELSRLTSDDSAVYYCARGAYYGDYVSHTMDFWGQGTSVTVSS
VL: NIVLTQSPASLAVSLGQRATISCRASESVDSYGNSFMHWYQQKPGQPPKLLIYLASNLESGVPARFSGSGSRTDFTLTIDPVEADDAAIYYCQQNNEDPLTFGAGTKLELK
notes: also called mAb OREG-203; Ab OREG-203
B2: Fab fragment of OREG-203 (Fab, V domains shown)
VH: QAQLQQSGAELVKPGASVKMSCKAFGYTFTTFPIEWMKQNHGKSLEWIGNFHPYNDYTKYNEKFKGKAKLTVEKSSRTVYLELSRLTSDDSAVYYCARGAYYGDYVSHTMDFWGQGTSVTVSS
VL: NIVLTQSPASLAVSLGQRATISCRASESVDSYGNSFMHWYQQKPGQPPKLLIYLASNLESGVPARFSGSGSRTDFTLTIDPVEADDAAIYYCQQNNEDPLTFGAGTKLELK
B3: OREG-207 (antibody, V domains shown)
VH: QAQLQQSGAELVKPGASVKMSCKAFGYTFTTFPIEWMKQNHGKSLEWIGNFHPYNDYTKYNEKFKGKAKLTVEKSSSTVYLELSRLTSDDSAVYYCARGAYYGDYVSHTMDFWGQGTSVTVSS
VL: NIVLTQSPASLAVSLGQRATISCRASESVDSYGNSFMHWYQQKPGQPPKLLIYLASNLESGVPARFSGSGSRTDFTLTIDPVEADDAAIYYCQQNNEDPLTFGAGTKLELK
notes: also called mAb OREG-207; Ab OREG-207
B4: OREG-210 (antibody, V domains shown)
VH: QVQLKESGPDLVAPSQSLSITCTVSGFSLTSYGIHWVRQPPGKGLEWLVVIWSDGTTTYNSALKSRLSISKDNSKSQVFLKMNSLQTDDTAMYYCASSYDYLYHYTMDYWGQGTSVTVSS
VL: DVVMTQTPLSLPVSLGDQASISCRSSQSLVHSNGNTYFHWYLQKPGQSPKLLIYKVSNRFSGVPDRFSGSGSGTDFTLKISRVEAEDLGVYFCSQSTHVPLTFGAGTNLELK
notes: also called mAb OREG-210; Ab OREG-210
B5: Fab fragment of OREG-210 (Fab, V domains shown)
VH: QVQLKESGPDLVAPSQSLSITCTVSGFSLTSYGIHWVRQPPGKGLEWLVVIWSDGTTTYNSALKSRLSISKDNSKSQVFLKMNSLQTDDTAMYYCASSYDYLYHYTMDYWGQGTSVTVSS
VL: DVVMTQTPLSLPVSLGDQASISCRSSQSLVHSNGNTYFHWYLQKPGQSPKLLIYKVSNRFSGVPDRFSGSGSGTDFTLKISRVEAEDLGVYFCSQSTHVPLTFGAGTNLELK
B6: F(ab')2 fragment of OREG-210 (other)
VH: QVQLKESGPDLVAPSQSLSITCTVSGFSLTSYGIHWVRQPPGKGLEWLVVIWSDGTTTYNSALKSRLSISKDNSKSQVFLKMNSLQTDDTAMYYCASSYDYLYHYTMDYWGQGTSVTVSS
VL: DVVMTQTPLSLPVSLGDQASISCRSSQSLVHSNGNTYFHWYLQKPGQSPKLLIYKVSNRFSGVPDRFSGSGSGTDFTLKISRVEAEDLGVYFCSQSTHVPLTFGAGTNLELK

How the values were obtained:
[1] = target: T1, recombinant human IL-17A; assay: cell-based or functional assay
[2] = target: T2, recombinant human IL-17A/F (heterodimer); assay: cell-based or functional assay
[3] = target: T1, recombinant human IL-17A; assay: competitive ELISA in solution (method of Friguet et al.)
Procedure: (§1) For this determination a competitive ELISA with the various isoforms was performed.
(§2) Appropriate concentrations of the respective antigens and monoclonal antibodies were mixed in assay buffer and incubated overnight with continuous shaking at room temperature. The same monoclonal antibodies in the same concentration, but without antigen were used as positive reference (100% value). Pre-incubated antibodies were added to the plates. The plates were incubated with continuous shaking and washed 4× with 250 μL/well TBS-TRP.

[4] = target: T2, recombinant human IL-17A/F (heterodimer); assay: as above
Procedure: as §1, §2

| Binder | IC50, neutralization of IL-6 production in normal human dermal fibroblasts [1] | IC50, neutralization of IL-6 production in normal human dermal fibroblasts [2] | Ka [3] [M⁻¹] | Kd [3] [nM] | Ka [4] [M⁻¹] | Kd [4] [nM] |
| --- | --- | --- | --- | --- | --- | --- |
| B1 | 115 ng/ml and 0.76 nM | 30.2 ng/ml and 0.2 nM | 1.4e+09 | 0.714 | 1e+09 | 1 |
| B2 | 75.9 ng/ml and 1.52 nM | 15.3 ng/ml and 0.306 nM | – | – | – | – |
| B3 | 96.5 ng/ml and 0.64 nM | 40.1 ng/ml and 0.26 nM | 1.54e+09 | 0.649 | 2.67e+09 | 0.375 |
| B4 | 110 ng/ml and 0.74 nM | 167 ng/ml and 1.1 nM | 6.4e+08 | 1.56 | 3.4e+08 | 2.94 |
| B5 | 1120 ng/ml and 22.4 nM | 605 ng/ml and 12.1 nM | – | – | – | – |
| B6 | 1050 ng/ml and 10.5 nM | 1160 ng/ml and 11.6 nM | – | – | – | – |
